The series deals with Bacillus subtilis DB104 (SP-AmyQ fusion secretion). In words: AmyQ secretion efficiency, weighted average sort bin (1 = best secretion, 10 = worst) (bin number (weighted average, 1-10)); higher = lower secretion efficiency. The essentials: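 In this assay, the secretion score is defined as the average bin number weighted by read frequency, normalised to beads per bin, with low-abundance sequences not counted. B. subtilis DB104 cells expressing mature AmyQ behind designed signal peptides (amyE-integrated) were enclosed with fluorescein-starch in ~65 nL alginate beads at about 0.3 cells per bead. Beads grew about 13 h at room temperature, were stained with nile red, and occupied beads went into 10 equally populated green/red fluorescence ratio bins by large-particle flow cytometry, whose amplicons were Illumina-sequenced.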

MKKIMSARKRRRKLTIFCFSPQASAAYD: the AmyQ secretion efficiency was 6.63.

Sequence MKKRLIGFLVLVPALIEDGITLIEANKK registered an AmyQ secretion efficiency of 5.91.

For the sequence MKKRLIAPMLLSAASLAFFAMSGSGAQAAAY, the AmyQ secretion efficiency turned out to be 3.78.

Turning to MFKKHTKRKRRKFLLASAVLAKPIEAHTV, the AmyQ secretion efficiency stood at 7.89.

In turn, MGLGKKLSVAVAASFMSLSISLPGVQCAEG had an AmyQ secretion efficiency of 2.75.

MRKYTVIASILLSFLSVLESKAFPV: the AmyQ secretion efficiency stood at 4.71.

In the case of MKLKSKLLLSCLALSTVFVATTIANEPTH, the AmyQ secretion efficiency was 7.21.

Turning to MKLKKRVSMFLVALTMCGGLFVTAAKAVKT, the AmyQ secretion efficiency turned out to be 4.92.

Sequence MNKPTKLFSTLALAAGMTLIAAAAGGAGTIHAQQP displayed an AmyQ secretion efficiency of 1.83.

MRSYIKVLTMCFLGLILFVPTALQDNS yielded an AmyQ secretion efficiency of 6.11.

The sequence MKLRKVLTGSVLSLGLLVSASPAFATSD displayed an AmyQ secretion efficiency of 2.17.

In the case of MPYLKRVLLLLVTGLFMSLFAVTATLSAQTG, the AmyQ secretion efficiency was 1.38.

As to MKKKQVMLALTAAAGLGLTALHKRPAAKAAPL, the AmyQ secretion efficiency is 6.71.

Consider MKKKQQHSTRRKLIVLLFFSFFGVQPIHAKKQ, for which the AmyQ secretion efficiency amounted to 5.23.

Sequence MKKSQYGGQTFGLVMGFSQFQPSTVFAADK yielded an AmyQ secretion efficiency of 6.36.

Regarding MYKKFVPFAVFLFLFFVSFRKMRNPHALDY, the AmyQ secretion efficiency was found to be 6.42.

MFLFQVSHAIIISVMLSFVIAVFHTIHASELTP: the AmyQ secretion efficiency stood at 6.77.

For MNLRKILLSSALSLGMLVSAAPVLDTSS, the AmyQ secretion efficiency is 6.16.

As for MRKWYFILLAGVLTSVILAFVYDKTKYNEE, the AmyQ secretion efficiency was 4.09.

In turn, MKRMIVRMTTPLLIVCLAFSSFSASARAASE registered an AmyQ secretion efficiency of 2.03.

MKQFAITLSVLCALILLVPTLLVIPFQHNKAAGASV showed an AmyQ secretion efficiency of 4.37.

The sequence MRMLWRSSSQCGLALTLAPCAQAAEP showed an AmyQ secretion efficiency of 8.18.

As to MRSYIKVLTMCFLGLILFVPTQLADNS, the AmyQ secretion efficiency worked out at 5.96.

MKVPKTMLLSTAAGLLLSLTATSVSAEEE had an AmyQ secretion efficiency of 2.6.

As to MRKKTKNRLISSVLSTVVISSLLFPGAAGASSP, the AmyQ secretion efficiency stood at 1.67.

As for MKRLLSTLLIGIMLLTFAPSCFAKQD, the AmyQ secretion efficiency was found to be 3.09.

Regarding MKRLLVSLRVWMVFLMNWVTRKRRKKAAAAVY, the AmyQ secretion efficiency is 5.91.

For MLKKKWMVGLLAGCLAAGGFSYNLFATEN, the AmyQ secretion efficiency was found to be 5.92.

Consider MLKKIALTLCPAIVGSLLFFTAPASAHKK, for which the AmyQ secretion efficiency turned out to be 1.72.

As to MKMKSGMEQAVSVLLLLSRLPVQASNTSE, the AmyQ secretion efficiency turned out to be 5.73.

The sequence MKRFLIGAGVAAVILKRWFIARHQTHSQEM registered an AmyQ secretion efficiency of 7.28.

Take MPIKKKVMMCLAVTLVFGSMSFPTLTNDGGFKE: the AmyQ secretion efficiency came to 5.45.

MSGSTLIILALFVLSLGLLSFMVTPVSAASK: the AmyQ secretion efficiency stood at 4.39.

As to MKKIVSILFMFGLVMGFSQFQPSTVFAAED, the AmyQ secretion efficiency came to 2.13.

The sequence MKRMCSICCAAVLLAGGAAQAEAV came in with an AmyQ secretion efficiency of 3.05.

MKRLLSTLLIGIMLLTFAPSAFAAQQ showed an AmyQ secretion efficiency of 1.25.

As to MKKAFLVFLSVVLVTTVFLVKQQESVAQTKQL, the AmyQ secretion efficiency worked out at 2.14.

MKNMSCKLVVSVTLFFSFLTIGPLTHAQNS yielded an AmyQ secretion efficiency of 1.52.

MKIRKIKKKKRKSFGMLISAVPALAAGT gave an AmyQ secretion efficiency of 7.53.

Regarding MKRLFMKYKRYQKQVVFVFAVKGAPAKAETH, the AmyQ secretion efficiency came out at 7.88.

In turn, MKKAAAVLLSLGLVFKFSYGAGHVAEAKTK had an AmyQ secretion efficiency of 3.2.

For MKWYRRRQRCSICCAAVLLAGGAAQAEAV, the AmyQ secretion efficiency stood at 4.99.

MKRFSTAYLLLGILCSAAVFLILSAGAPSRALGAEV had an AmyQ secretion efficiency of 3.

With MKKIRRRKRKCLAALFTIGFPAQQADAAEA, the AmyQ secretion efficiency was determined as 7.19.

The sequence MKKRLIAPMLLSAASLAFFAMSGSHQAAAY registered an AmyQ secretion efficiency of 5.04.

The values above are taken from the supplement of paper PMC9942255.
